{
  "source": "paper PMC7036032",
  "molecular_target": "T1, CstF77 (human), Q12996",
  "T1 chain": "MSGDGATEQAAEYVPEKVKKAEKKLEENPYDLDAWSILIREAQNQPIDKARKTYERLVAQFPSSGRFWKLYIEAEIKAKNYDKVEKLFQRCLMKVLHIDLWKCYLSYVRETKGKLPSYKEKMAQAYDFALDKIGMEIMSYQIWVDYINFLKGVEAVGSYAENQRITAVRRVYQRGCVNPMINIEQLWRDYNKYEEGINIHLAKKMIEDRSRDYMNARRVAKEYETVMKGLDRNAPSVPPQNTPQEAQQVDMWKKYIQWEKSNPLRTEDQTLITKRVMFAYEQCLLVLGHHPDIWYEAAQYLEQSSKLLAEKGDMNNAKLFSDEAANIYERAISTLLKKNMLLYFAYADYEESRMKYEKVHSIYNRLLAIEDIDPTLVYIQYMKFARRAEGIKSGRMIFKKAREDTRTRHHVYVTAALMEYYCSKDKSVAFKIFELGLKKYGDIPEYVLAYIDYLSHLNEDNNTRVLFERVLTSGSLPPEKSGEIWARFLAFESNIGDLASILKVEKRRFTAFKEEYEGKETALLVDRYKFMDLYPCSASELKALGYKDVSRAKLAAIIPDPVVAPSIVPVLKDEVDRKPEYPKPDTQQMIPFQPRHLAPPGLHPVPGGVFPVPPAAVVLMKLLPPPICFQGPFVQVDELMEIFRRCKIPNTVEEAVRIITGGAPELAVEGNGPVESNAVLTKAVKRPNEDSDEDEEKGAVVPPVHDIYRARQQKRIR",
  "test": "cryo-EM structure",
  "conditions": "remark: other sources report otherwise",
  "data": [
    {"binder": "CstF77, Q12996 1-717 (natural protein) MSGDGATEQAAEYVPEKVKKAEKKLEENPYDLDAWSILIREAQNQPIDKARKTYERLVAQFPSSGRFWKLYIEAEIKAKNYDKVEKLFQRCLMKVLHIDLWKCYLSYVRETKGKLPSYKEKMAQAYDFALDKIGMEIMSYQIWVDYINFLKGVEAVGSYAENQRITAVRRVYQRGCVNPMINIEQLWRDYNKYEEGINIHLAKKMIEDRSRDYMNARRVAKEYETVMKGLDRNAPSVPPQNTPQEAQQVDMWKKYIQWEKSNPLRTEDQTLITKRVMFAYEQCLLVLGHHPDIWYEAAQYLEQSSKLLAEKGDMNNAKLFSDEAANIYERAISTLLKKNMLLYFAYADYEESRMKYEKVHSIYNRLLAIEDIDPTLVYIQYMKFARRAEGIKSGRMIFKKAREDTRTRHHVYVTAALMEYYCSKDKSVAFKIFELGLKKYGDIPEYVLAYIDYLSHLNEDNNTRVLFERVLTSGSLPPEKSGEIWARFLAFESNIGDLASILKVEKRRFTAFKEEYEGKETALLVDRYKFMDLYPCSASELKALGYKDVSRAKLAAIIPDPVVAPSIVPVLKDEVDRKPEYPKPDTQQMIPFQPRHLAPPGLHPVPGGVFPVPPAAVVLMKLLPPPICFQGPFVQVDELMEIFRRCKIPNTVEEAVRIITGGAPELAVEGNGPVESNAVLTKAVKRPNEDSDEDEEKGAVVPPVHDIYRARQQKRIR", "values": [
      {"measurement": "stoichiometry N", "value": 2}
    ]}
  ]
}
